{"source": "patent US20070065896A1", "about": "“Methods and kits for quantifying metabolites or analytes” (priority 2003, published 2007)", "key": {"[1]": {"test": "Specific activities of recombinant enzymes towards different substrates (Kredich and Tomkins)", "type": "biochemical", "source_text": "Specific activities (micromol/min/mg protein) towards different substrates\n(§1) Assayed according to Kredich and Tomkins (Journal of Biological Chemistry 241, 4955-4965, 1966)"}, "[2]": {"test": "Kinetic properties of recombinant enzymes", "type": "biochemical", "details": "± SD, n in brackets", "source_text": "as §1"}, "[3]": {"details": "substrate O-succinyl-L-homoserine"}}}
{"molecule": "PA3107: Recombinant N-terminal His-tagged O-acetyl-L-homoserine thiol lyase from Pseudomonas aeruginosa, encoded by gene PA3107 (MetZ, Genbank AAA83435) (protein, UniProt P55218 1-403, looked up, N-terminal His tag) O-succinylhomoserine …: MTQDWDAGRLDSDLEGAAFDTLAVRAGQRRTPEGEHGEALFTTSSYVFRTAADAAARFAGEVPGNVYSRYTNPTVRTFEERIAALEGAEQAVATASGMSAILALVMSLCSSGDHVLVSRSVFGSTISLFDKYFKRFGIQVDYPPLSDLAAWEAACKPNTKLFFVESPSNPLAELVDIAALAEIAHAKGALLAVDNCFCTPALQQPLKLGADVVIHSATKYIDGQGRGMGGVVAGRGEQMKEVVGFLRTAGPTLSPFNAWLFLKGLETLRIRMQAHSASALALAEWLERQPGIERVYYAGLPSHPQHELARRQQSGFGAVVSFDVKGGRDAAWRFIDATRMVSITTNLGDTKTTIAHPATTSHGRLSPEDRARAGIGDSLIRVAVGLEDLDDLKADMARGLAAL", "values": [{"measurement": "Specific activity", "setting": "[1]; substrate O-acetyl-L-homoserine", "value": "<0.1", "unit": "micromol/min/mg protein"}, {"measurement": "Specific activity", "setting": "[1]; substrate O-acetyl-serine", "value": "<0.1", "unit": "micromol/min/mg protein"}, {"measurement": "Specific activity", "setting": "[1]; [3]", "value": 139, "unit": "micromol/min/mg protein"}, {"measurement": "Km", "setting": "[2]; Km for Na2S, determined with 15 mM O-succinyl-L-homoserine", "value": "800 ± 200", "unit": "µM"}, {"measurement": "Km", "setting": "[2]; Km for O-succinyl-L-homoserine", "value": "4400 ± 1000", "unit": "µM"}, {"measurement": "Vmax", "setting": "[2]; substrate Na2S", "value": "174.2 ± 39.8 (3) μmol/min/mg protein"}, {"measurement": "Vmax", "setting": "[2]; [3]", "value": "180.4 ± 21.0 (3) μmol/min/mg protein"}]}
